Results on one substance are retold here after PMC7867571.

The assay has as its target H. influenzae VapXD2 heterotrimer (VapD homodimer with one VapX) (Haemophilus influenzae (non-typeable, strain 86-028NP)) (UniProt P71351). In words: crystal structure.

Take “H. influenzae VapXD2 heterotrimer (VapD homodimer with one VapX) (from UniProt P71351 1-91; Q4QN94 1-63) (complex)”: the stoichiometry N – broadly, the number of molecules, sites or subunits per partner or assembly – came to 3.
